Laboratory results as given in article doi:10.1101/2023.11.22.568357 (bioRxiv, 2023).
Blank lines part the entries; values can stand above or below the molecule they belong to.

Tests used:
[1] = molecular target: His-TEV LRRC4B (limits not told for Fig. 1G) (human); test: ELISA
[2] = molecular target: LRRC4B(484-576)-hFc (human) (UniProt Q9NT99); test: ELISA
[3] = molecular target: LRRC4B(453-576)-hFc (human) (UniProt Q9NT99); test: ELISA
[4] = molecular target: His-TEV LRRC4B(36-576) (human) (UniProt Q9NT99); test: ELISA
[5] = molecular target: 6xHis-LRRC4B(453–576) (human) (UniProt Q9NT99); test: SPR
[6] = molecular target: T1, PTPRF ectodomain (30-1263)-hFc (human, UniProt P10586-1 30-1263); test: ELISA
T1 sequence (looked up): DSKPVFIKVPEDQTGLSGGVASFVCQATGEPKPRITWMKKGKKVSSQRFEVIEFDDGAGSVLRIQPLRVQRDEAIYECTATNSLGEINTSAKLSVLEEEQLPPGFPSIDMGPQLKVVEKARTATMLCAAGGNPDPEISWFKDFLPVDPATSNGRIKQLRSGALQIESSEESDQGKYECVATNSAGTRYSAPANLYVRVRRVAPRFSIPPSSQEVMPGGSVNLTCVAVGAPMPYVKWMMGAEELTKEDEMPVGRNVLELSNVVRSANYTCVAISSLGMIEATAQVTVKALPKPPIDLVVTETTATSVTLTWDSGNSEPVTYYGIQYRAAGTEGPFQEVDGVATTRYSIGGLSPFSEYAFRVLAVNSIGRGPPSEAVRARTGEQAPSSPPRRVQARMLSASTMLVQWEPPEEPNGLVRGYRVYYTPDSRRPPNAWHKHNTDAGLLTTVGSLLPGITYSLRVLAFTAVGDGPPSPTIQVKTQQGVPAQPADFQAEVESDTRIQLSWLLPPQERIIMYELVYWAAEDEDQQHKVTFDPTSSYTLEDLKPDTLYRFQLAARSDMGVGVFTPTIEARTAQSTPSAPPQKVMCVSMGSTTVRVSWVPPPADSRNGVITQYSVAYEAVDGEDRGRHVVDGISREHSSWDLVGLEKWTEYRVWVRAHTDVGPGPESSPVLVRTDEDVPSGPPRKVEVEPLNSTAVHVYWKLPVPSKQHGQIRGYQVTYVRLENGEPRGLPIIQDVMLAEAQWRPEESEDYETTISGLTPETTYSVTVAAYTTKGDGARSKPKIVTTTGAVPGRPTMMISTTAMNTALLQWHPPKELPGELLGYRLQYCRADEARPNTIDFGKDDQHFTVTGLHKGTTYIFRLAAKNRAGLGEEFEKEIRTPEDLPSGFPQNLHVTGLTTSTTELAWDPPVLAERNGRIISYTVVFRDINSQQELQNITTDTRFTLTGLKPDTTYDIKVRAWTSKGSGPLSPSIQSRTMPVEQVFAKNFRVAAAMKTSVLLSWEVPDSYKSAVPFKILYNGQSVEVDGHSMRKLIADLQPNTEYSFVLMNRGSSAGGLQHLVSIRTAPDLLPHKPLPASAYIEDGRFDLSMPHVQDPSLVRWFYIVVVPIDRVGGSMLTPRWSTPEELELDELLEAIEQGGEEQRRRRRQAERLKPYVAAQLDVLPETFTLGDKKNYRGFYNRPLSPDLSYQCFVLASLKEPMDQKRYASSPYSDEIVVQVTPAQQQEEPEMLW

[7] = molecular target: FAM19A5 (wild type, recombinant) (human); test: ELISA

- EC50 [1]: 0.595 nM
Molecule: MT FAM19A5(R58A, R59A) (ligand)

- EC50 [2]: 0.112 nM
- EC50 [3]: 0.0685 nM
- IC50 [4]: 281 nM
- EC50 [1]: 0.41 nM
- Kd [5]: 0.0321 nM
- koff [5]: 0.000157 s⁻¹
- kon [5]: 4.89e+06 M⁻¹ s⁻¹
Molecule: FAM19A5 (wild type, recombinant) (ligand)

- binding result [6]: binds
B1: His-TEV LRRC4B(36-576) (domain or fragment, human, UniProt Q9NT99 36-576, looked up)
chain: AGGGGVAVTSAAGGGSPPATSCPVACSCSNQASRVICTRRDLAEVPASIPVNTRYLNLQENGIQVIRTDTFKHLRHLEILQLSKNLVRKIEVGAFNGLPSLNTLELFDNRLTTVPTQAFEYLSKLRELWLRNNPIESIPSYAFNRVPSLRRLDLGELKRLEYISEAAFEGLVNLRYLNLGMCNLKDIPNLTALVRLEELELSGNRLDLIRPGSFQGLTSLRKLWLMHAQVATIERNAFDDLKSLEELNLSHNNLMSLPHDLFTPLHRLERVHLNHNPWHCNCDVLWLSWWLKETVPSNTTCCARCHAPAGLKGRYIGELDQSHFTCYAPVIVEPPTDLNVTEGMAAELKCRTGTSMTSVNWLTPNGTLMTHGSYRVRISVLHDGTLNFTNVTVQDTGQYTCMVTNSAGNTTASATLNVSAVDPVAAGGTGSGGGGPGGSGGVGGGSGGYTYFTTVTVETLETQPGEEALQPRGTEKEPPGPTTDGVWGGGRPGDAAGPASSSTTAPAPRSSRPTEKAFTVPITDVTENALKDLDDVMKTTK

- IC50 [7]: 8.1 nM
B2: LRRC4B(453-576)-hFc (Fc fusion)
chain: VSAVDPVAAGGTGSGGGGPGGSGGVGGGSGGYTYFTTVTVETLETQPGEEALQPRGTEKEPPGPTTDGVWGGGRPGDAAGPASSSTTAPAPRSSRPTEKAFTVPITDVTENALKDLDDVMKTTK
